Experimental findings from paper doi:10.1101/2024.03.15.585150 (bioRxiv, 2024) are described below.

Read-outs that look alike come from different tables or passages of the source. No end group written: not given here. *: point of attachment. Biotin = O=C1N[C@H]2[C@H](CS[C@H]2CCCCC(=O)*)N1

Assay [1] has as its target T1, KIX domain of CBP coactivator (KIX region 586-672) (UniProt P45481 586-672). The assay can be described thus: BLI. In general terms: Biolayer interferometry detects binding as a change in optical thickness at a sensor tip.
Assay [2] concerns the target T1, KIX domain of CBP coactivator (KIX …). In words: BLI. The source holds these as a separate data set.

B1: c-Myc peptide (c-Myc 9aaTAD), Biotin-GSSS-TQLEMVTELLG (peptide)
peptide: Biotin-GSSSTQLEMVTELLG
Consider B1, for which the Kd in assay [1] was 2160 ± 1170 nM.

B2: N-Myc peptide (N-Myc 9aaTAD), Biotin-GSSS-EPPSWVTEMLLEN (peptide)
peptide: Biotin-GSSSEPPSWVTEMLLEN
Molecule B2 yielded a Kd in assay [1] of 880 ± 110 nM.

B3: Sp1-Ac peptide (acidic form of Sp1 9aaTAD), Biotin-GSS-GDVSWDTLDLDDLD (peptide)
peptide: Biotin-GSSGDVSWDTLDLDDLD
As to B3, the dissociation constant Kd in assay [2] worked out at 9770 ± 1570 nM.

B4: MLL peptide (MLL 9aaTAD), Biotin-GS-NILPSDIMDFVLKNT (peptide)
peptide: Biotin-GSNILPSDIMDFVLKNT
Turning to B4, binding in assay [1] was put at a Kd of 1170 ± 210 nM.

One may read the Kd as a measure of binding affinity in units of concentration. High values mean weaker binding, low ones tighter binding.
